Source: article PMC7374468, “Characterization of highly active 2-keto-3-deoxy-L-arabinonate and 2-keto-3-deoxy-D-xylonate dehydratases in terms of the biotransformation of hemicellulose sugars to chemicals” (Applied Microbiology and Biotechnology, 2020)

Key:
[1] = substrate: O=C(O)C(=O)C[C@@H](O)CO; experiment: purified protein, by the assay type; set-up: coupled assay with PpKGSADH, NADH formation at 340 nm, Michaelis-Menten fit, 25 °C, pH 7.5; conditions: pH 7.5; 25.0 °C
Description: (§1) To determine dehydratase activity, a coupled-assay with PpKGSADH as auxiliary enzyme was used to link the oxidation of KGSA to α-KG using NAD^+, as was described in a previous study (Beer et al. [2017]). The measurement was performed in a 96-well F-bottom plate (Greiner Bio-One, Germany). 20 μL of a diluted enzyme was added to a 96-well plate. A total of 180 μL of reaction solution containing different concentrations of either D-KDP or L-KDP with 0.5 U/mL PpKGSADH, 2 mM NAD^+, 5 mM MgCl2, 50 mM HEPES pH 7.5 (end concentration) were added subsequently. The measurement was performed with a Multiskan spectrophotometer (Thermo Scientific, Germany) by measuring the development of NADH at 340 nm at 25 °C. Enzyme activity (kcat) was defined as the number of NADH molecules formed per molecule of enzyme per second. Measurements were performed in triplicate.

[2] = substrate: O=C(O)C(=O)C[C@H](O)CO; experiment: purified protein; type: biochemical, Caulobacter vibrioides; conditions: 2 mM NAD+ for coupling enzyme, 5 mM MgCl2, 50 mM HEPES pH 7.5, 25 °C
[3] = substrate: O=C(O)C(=O)C[C@H](O)CO; experiment: purified protein; type: biochemical, Paraburkholderia xenovorans; conditions: 2 mM NAD+ for coupling enzyme, 5 mM MgCl2, 50 mM HEPES pH 7.5, 25 °C
[4] = substrate: O=C(O)C(=O)C[C@H](O)CO; experiment: purified protein; type: biochemical, Pseudomonas putida; conditions: 2 mM NAD+ for coupling enzyme, 5 mM MgCl2, 50 mM HEPES pH 7.5, 25 °C
[5] = substrate: O=C(O)C(=O)C[C@H](O)CO; experiment: purified protein; type: biochemical, Herbaspirillum seropedicae; conditions: 2 mM NAD+ for coupling enzyme, 5 mM MgCl2, 50 mM HEPES pH 7.5, 25 °C
[6] = substrate: O=C(O)C(=O)C[C@H](O)CO; experiment: purified protein; type: biochemical, Cupriavidus necator; conditions: 2 mM NAD+ for coupling enzyme, 5 mM MgCl2, 50 mM HEPES pH 7.5, 25 °C
[7] = substrate: O=C(O)C(=O)C[C@H](O)CO; experiment: purified protein, by the assay type; set-up: coupled assay with PpKGSADH, NADH formation at 340 nm, Michaelis-Menten fit, 25 °C, pH 7.5; conditions: pH 7.5; 25.0 °C
Description: as §1

[8] = substrate: O=C(O)C(=O)C[C@@H](O)CO; experiment: purified protein; type: biochemical, Cupriavidus necator; conditions: 2 mM NAD+ for coupling enzyme, 5 mM MgCl2, 50 mM HEPES pH 7.5, 25 °C

B1: CcD-KdpD2 (Caulobacter vibrioides NA1000) (protein)
chain: MGVSEFLPEDWKAATLLGRIDFGEGPTPVLVRGGRVEDVSKIAPTVADLMNAFQPGAVIPRGEDKGPLEALDIRPVWEDPDGAAPVKLLAPVDLQCLKAAGVTFAVSTLERVIEERARGDAGEALKIRTLLAERMGGDLKSVEPGSQGAQRLKDALIADGLWSQYLEVAIGPDAEIFTKGPTLSSMGWGDQVGVRYDSHWNNPEPEVVLLCDGSGLIRGAALGNDVNLRDFEGRSALLLSKAKDNNASCAIGPFFRLFDETFGLDDVRSAEVELKITGRDNFVLDGKSNMSLISRDPAVLAGQAYGKQHQYPDGFALFLGTMFAPIQDRDTPGQGFTHKVGDRVRVSTPKLGVLENEVTTCDKAKPWTFGISALIRNLAGRGLL
notes: C-terminal His6 tag (kept), pET vector, E. coli BL21(DE3), HisTrap purified
Work on B1 yielded a Km [1] of 3960 ± 130 µM, a kcat [1] of 9.67 ± 0.08 s⁻¹ and a kcat/Km [1] of 2440 ± 180 M⁻¹ s⁻¹. For the same protein, the Km [2] was 290 ± 10 µM, the kcat [2] was 55.8 ± 0.4 s⁻¹ and the kcat/Km [2] was 190600 ± 200 M⁻¹ s⁻¹.

B2: PxD-KdpD (Paraburkholderia xenovorans LB400) (protein)
chain: MSATSPSSFLPDDLGQALLVGRVWRKTDQHEGPSVVVVRGGEVFDITATVPTTADLFDREDAAPLARTAPGVSLGAVAQLIASNLPGAAAPALRLLAPCDVQAIKACGVTFAVSLIERVIEEQAAGDPAKAKEVRDTIASMIGTDLSKIEPGSDAAMKLKAELERRGAWSQYMEVGIGPDAEVFSKSQPMSAVGFGADVGLLAASTWNNPEPEIVLAVNSRGEIVGATLGNDVNLRDIEGRSALLLGKCKDNNGSCAIGPFVRLFDESFSLDSVRTASVALRVEGADDGFVLEGVSHMSEISRDPANLVAQTWGRHHQYPDGFMLFLGTMFSPIKDRDAPGAGFTHHLGDLVTISTPQLGALTNTVRLSTEIEPWTFGVRALYRNLAARGLLASA
notes: C-terminal His6 tag (kept), codon-optimised synthetic gene, E. coli BL21(DE3), HisTrap purified
With B2 the Km [1] was 5080 ± 170 µM, the kcat [1] was 18.73 ± 0.15 s⁻¹ and the kcat/Km [1] was 3690 ± 180 M⁻¹ s⁻¹. For the same protein, the Km [3] was 280 ± 10 µM, the kcat [3] was 63.6 ± 0.4 s⁻¹ and the kcat/Km [3] was 229800 ± 200 M⁻¹ s⁻¹.

B3: PpD-KdpD (Pseudomonas putida KT2440) (protein)
chain: MTDRTNANQPLPLSHDASVFDRGSWVGRVWLPEQGPAVVLVKAGAVYDISTHVATVSALLEVDDPVAYLRALPLAEPLIALPALLGNSDPTRRTPHQPWLLAPIDLQAVKAAGVTFATSLLERVVEEQAKGDPAKADAIRDTLASRIGADLSQIVPGSAQAEALRKVLVEQGLWSQYLEVGIGPDAEVFTKAQPLSAVGHGADIGIHPKSSWNNPEPEVVLAVSSNGSIKGAMLGNDVNLRDFEGRSALLLSKAKDNNASTALGPLLRLFDESFGLDDVRAAEVDLRVEGEDGFILSGRSSMRQISRDPQDLVQQTLNENHQYPDGLVLFLGTLFAPKQDRDQPGNGFTHKPGDVVSISNPQLGTLCNRVTTSDLAPQWDFGLRALIDNLGRRGLLEVAATARPL
notes: as for B1
B3 was tested, and the Km [4] was 350 ± 10 µM, the kcat [4] was 75.9 ± 0.6 s⁻¹ and the kcat/Km [4] was 219900 ± 200 M⁻¹ s⁻¹. It also gave a Km [1] of 6120 ± 210 µM, a kcat [1] of 19.64 ± 0.17 s⁻¹ and a kcat/Km [1] of 3210 ± 190 M⁻¹ s⁻¹.

B4: HsD-KdpD (Herbaspirillum seropedicae SmR1) (protein)
chain: MAHTFSLQAHLPEDHAQATLIGRIWQPGVGPVLVRIDADGAYDLTLIAATSSELLELDNPAAAVRSATNMTRIATLQELLDNADAAGRDTSRPWLLAPIDLQAVKASGVTFVASMLERVIEEQARGDAGKAESVRKAITAVIGDNLSSVVPGSPEAARLKEVLLDQGVWSQYLEVGIGPDAEIFTKAQPMSSVGLGDEVGIHPKSAWNNPEPEIVLAINSRGKVVGATLGNDVNLRDFEGRSALLLGKAKDNNASCAVGPFIRLFDANFSIDDVRRAELTMRVDGTEGFTLKGSSSMSMISRDPLQLVEHAIGPNHQYPDGLVLFLGTMFAPTQDRFGPGQGFTHQVADIVTISTPKLGALVNTVNFSDQTAPWTFGLTALFKNLADRKLI
notes: as for B1
In the case of B4, the Km [5] is reported as 170 ± 10 µM, the kcat [5] is reported as 58.2 ± 0.4 s⁻¹ and the kcat/Km [5] is reported as 347900 ± 200 M⁻¹ s⁻¹. For the same protein, the Km [1] was 3180 ± 180 µM, the kcat [1] was 16.9 ± 0.21 s⁻¹ and the kcat/Km [1] was 5320 ± 230 M⁻¹ s⁻¹.

B5: CnD-KdpD (Cupriavidus necator H16) (protein)
chain: MALPLTLSATQTLPADGLAGTLVGRAWIPASDGAPAGPAVVVLRPAGVFDISDVAPTMSTLLEQGDPVTVVHNTPGRWIGKLDDLLANTADPRGSDSVARLLAPCDLQVIKAAGVTFAGSLVERVIEEQTKGDPQGAAEVRNRIQALVGERLSRIRPGSREAGELKALLIEHGMWSQYLEVGIGPDAEIFTKAPLLSALGTGTEIGLHPGSAWNNPEPEIVLAINSRGDVLGATLGNDVNLRDFEGRSALLLGKAKDNNGSCAIGPFLRLFDQSLSLDDVRRATVDLRVDGLDGFVLSGTSSMDQITRDPLELAEQVMGATHQYPDGAMLFLGTLFAPVEDRDTAGGGFTHKDGDLVTISSRQLGSLVNRVGRSDRIAPWTFGVRALMANLAARGHTTF
notes: C-terminal His6 tag (kept), pET vector, E. coli BL21(DE3), HisTrap purified; strain given inconsistently (H16 gDNA vs N-1)
Work on B5 yielded a Km [1] of 2490 ± 200 µM, a kcat [1] of 4.24 ± 0.07 s⁻¹ and a kcat/Km [1] of 1700 ± 280 M⁻¹ s⁻¹. It also gave a Km [6] of 230 ± 20 µM, a kcat [6] of 13.8 ± 0.2 s⁻¹ and a kcat/Km [6] of 58900 ± 400 M⁻¹ s⁻¹.

B6: CnL-KdpD (Nhis) (Cupriavidus necator H16) (protein)
chain: MTRTPSPTVYRGVFPVAPTVFDAQGGLDLDGQRRCIDFMIDAGSHGICILANFSEQFVLSDDERNVLMKTVLEHVDGRVPVIVTTTHFSSRLCAERSRAAQDAGAAMVMVMPPYHGATIRVPERSIYEFFATVSDAIDIPIMIQDAPVSGTTLSAPFLARMAREIGNVSYFKIEVPQAAAKLRELIELGGDAIVGPWDGEEAITLMADLEAGATGAMTGAGFPDGIRQILDAWQAGDAELAAQRYQQWLPLINYENRQGWLATSKVLMQAGGVIASDAVRHPLQPMHPATREGLLKIARRLDPLVLRWAR
notes: N-terminal His6 tag (kept), pET vector, E. coli BL21(DE3), HisTrap purified; strain given inconsistently (H16 gDNA vs N-1)
Protein B6 has a Km [7] of 4080 ± 210 µM, a kcat [7] of 12 ± 0.16 s⁻¹ and a kcat/Km [7] of 2950 ± 230 M⁻¹ s⁻¹. It also gave a Km [8] of 170 ± 0 µM, a kcat [8] of 23.4 ± 0.1 s⁻¹ and a kcat/Km [8] of 137200 ± 200 M⁻¹ s⁻¹.

B7: CnL-KdpD (Chis) (Cupriavidus necator H16) (protein)
chain: MTRTPSPTVYRGVFPVAPTVFDAQGGLDLDGQRRCIDFMIDAGSHGICILANFSEQFVLSDDERNVLMKTVLEHVDGRVPVIVTTTHFSSRLCAERSRAAQDAGAAMVMVMPPYHGATIRVPERSIYEFFATVSDAIDIPIMIQDAPVSGTTLSAPFLARMAREIGNVSYFKIEVPQAAAKLRELIELGGDAIVGPWDGEEAITLMADLEAGATGAMTGAGFPDGIRQILDAWQAGDAELAAQRYQQWLPLINYENRQGWLATSKVLMQAGGVIASDAVRHPLQPMHPATREGLLKIARRLDPLVLRWAR
notes: as for B5
B7 showed a Km [7] of 6400 ± 170 µM, a kcat [7] of 11.01 ± 0.08 s⁻¹ and a kcat/Km [7] of 1720 ± 160 M⁻¹ s⁻¹. For the same protein, the Km [8] was 160 ± 10 µM, the kcat [8] was 22.5 ± 0.2 s⁻¹ and the kcat/Km [8] was 137500 ± 200 M⁻¹ s⁻¹.

B8: CcD-KdpD1 (Caulobacter vibrioides CB15) (protein)
chain: MVCRRLLAWTARAREAEDFALVRQPTCRPHMLALPSADERAPPTVSALQTLEFWGDDAVGVSEFLPEDWKAATLLGRIDFGEGPTPVLVRGGRVEDVSKIAPTVADLMNAFQPGAVIPRGEDKGPLEALDIRPVWEDPDGAAPVKLLAPVDLQCLKAAGVTFAVSTLERVIEERARGDAGEALKIRTLLAERMGGDLKSVEPGSQGAQRLKDALIADGLWSQYLEVAIGPDAEIFTKGPTLSSMGWGDQVGVRYDSHWNNPEPEVVLLCDGSGLIRGAALGNDVNLRDFEGRSALLLSKAKDNNASCAIGPFFRLFDETFGLDDVRSAEVELKITGRDNFVLDGKSNMSLISRDPAVLAGQAYGKQHQYPDGFALFLGTMFAPIQDRDTPGQGFTHKVGDRVRVSTPKLGVLENEVTTCDKAKPWTFGISALIRNLAGRGLL
notes: C-terminal His6 tag (kept), codon-optimised synthetic gene, E. coli BL21(DE3); 58-residue N-terminal extension
With B8 the Km [1] was 2810 ± 120 µM, the kcat [1] was 7.99 ± 0.08 s⁻¹ and the kcat/Km [1] was 2840 ± 210 M⁻¹ s⁻¹. It also gave a Km [2] of 250 ± 10 µM, a kcat [2] of 45.6 ± 0.3 s⁻¹ and a kcat/Km [2] of 185700 ± 200 M⁻¹ s⁻¹.
